± gives the uncertainty stated by the source.
Test: self-splicing fitness, log relative to wild type (ln ratio); higher = more splicing; Tetrahymena group I intron in knt gene, E. coli kanamycin selection, DiMSum; sequences stand for … in CUCUCU…GGAGGGAAAAGUUAUCAGGCAUGCACCUGGUAGCUAGUCUUUAAACCAAUAGAUUGCAUCGGUUUAAAAGGCAAGACCGUCAAAUUGCGGGAAAGGGGUCAACAGCCGUUCAGUACCAAGUCUCAGGGGAAACUUUGAGAUGGCCUUGCAAAGGGUAUGGUAAUAAGCUGACGGACAUGGUCCUAACCACGCAGCCAAGUCCUAAGUCAACAGAUCUUCUGUUGAUAUGGAUGCAGUUCACAGACUAAAUGUCGGUCGGGGAAGAUGUAUUCUUCUCAUAAGAUAUAGUCGGACCUCUCCUUAAUGGGAGCUAGCGGAUGAAGUGAUGCAACACUGGAGCCGCUGGGAACUAAUUUGUAUGCGAAAGUAUAUUGAUUAGUUUUGGAGUACUCGUGGUCG
Outline: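 A randomised library covering all eight P1ex-region intron nucleotides was built with the intron in the knt kanamycin-resistance gene on pET-22b(+) and held in E. coli BL21(DE3). Cells were grown overnight at 37°C or 30°C on LB agar, with or without 25 μg/mL kanamycin, plus 100 μg/mL carbenicillin, 50 μM IPTG and 0.2% rhamnose, and pooled colonies were amplicon-sequenced on an Illumina HiSeq 2500. DiMSum fitness is the error-weighted combination of wild-type-normalised replicate fold changes, kanamycin versus none.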

Sequence	self-splicing fitness (ln) (30 °C)	self-splicing fitness (ln) (37 °C)
GAGCAGCAAUAUUACGCGCG	-1.25 ± 0.1	0.406 ± 0.12
AUUAAGCAAUAUUACGUGAA	-1.55 ± 0.14	-1.5 ± 0.11
GCUAAGCAAUAUUACGCGAC	-2.11 ± 0.14	-1.54 ± 0.17
ACCUAGCAAUAUUACGUCGU	-0.733 ± 0.045	-0.455 ± 0.059
UCAUAGCAAUAUUACGUAGA	-1.88 ± 0.097	-1.8 ± 0.12
GAGCAGCAAUAUUACGUGAC	-2.38 ± 0.15	-1.64 ± 0.15
UGGUAGCAAUAUUACGAUUC	-2.63 ± 0.24	-2.05 ± 0.26
AAUAAGCAAUAUUACGCGUU	-3.75 ± 0.15	-1.8 ± 0.14
CAUAAGCAAUAUUACGUCGC	-4.06 ± 0.18	-3.2 ± 0.17
CGGCAGCAAUAUUACGCUGC	-3.47 ± 0.32	-1.5 ± 0.19
CUAUAGCAAUAUUACGCCGC		-2.27 ± 0.41
GCAAAGCAAUAUUACGCCGA	-2.04 ± 0.31	-1.82 ± 0.21
GACAAGCAAUAUUACGUUCG	-2.99 ± 0.19	-1.61 ± 0.12
GGGGAGCAAUAUUACGGUCA		-0.676 ± 0.18
AGUCAGCAAUAUUACGUCUC	-4.29 ± 0.31	-2.01 ± 0.15
GGAUAGCAAUAUUACGUAAC	-1.66 ± 0.15	-0.538 ± 0.16
CUACAGCAAUAUUACGGUUG	-1.78 ± 0.078	-1.73 ± 0.091
CGUCAGCAAUAUUACGGAAA	-2.57 ± 0.3	-2.38 ± 0.37
GGAUAGCAAUAUUACGGAGA	-2.79 ± 0.26	-2.33 ± 0.3
ACCAAGCAAUAUUACGAGGA	-3.15 ± 0.19	-2.7 ± 0.16
GUAAAGCAAUAUUACGCAUG	-1.15 ± 0.077	-0.761 ± 0.1
GAAUAGCAAUAUUACGCUGU	-3.12 ± 0.21	-2.1 ± 0.15
UUUCAGCAAUAUUACGUUCU		-1.89 ± 0.21
GGGUAGCAAUAUUACGGUUC	-0.821 ± 0.095	0.258 ± 0.13

Sequence	self-splicing fitness (ln) (30 °C)	self-splicing fitness (ln) (37 °C)
ACCAAGCAAUAUUACGAACA	-2.91 ± 0.16	-0.543 ± 0.089
UUCCAGCAAUAUUACGAUGC	-3.4 ± 0.23	-2.79 ± 0.23
GUAAAGCAAUAUUACGAGAC	-2.46 ± 0.22	-1.08 ± 0.29
AAGUAGCAAUAUUACGAAUC	-2.13 ± 0.22	-1.4 ± 0.25
CCCUAGCAAUAUUACGAAUA	-1.47 ± 0.3	-1.79 ± 0.39
AAACAGCAAUAUUACGCUAC	-3.84 ± 0.2	-3.56 ± 0.24
CGCCAGCAAUAUUACGUUUG	-1.17 ± 0.049	-0.629 ± 0.072
UAGUAGCAAUAUUACGGGGG	-4.33 ± 0.46	-2.8 ± 0.36
GUAGAGCAAUAUUACGUACC	-3.88 ± 0.47	-1.59 ± 0.37
CACGAGCAAUAUUACGUCGU	-2.05 ± 0.14	-3.43 ± 0.24
CCGGAGCAAUAUUACGCACU		-2.69 ± 0.48
UUUAAGCAAUAUUACGCAAU	-2.5 ± 0.24	-1.55 ± 0.23
CCGAAGCAAUAUUACGUGGU	-4.68 ± 0.29	-2.24 ± 0.2
UGUAAGCAAUAUUACGCUAA	-2.73 ± 0.21	-0.75 ± 0.15
ACCGAGCAAUAUUACGACCG	-2.92 ± 0.22	-1.52 ± 0.21
ACCUAGCAAUAUUACGCGUU	-2.76 ± 0.099	-0.77 ± 0.085
ACGCAGCAAUAUUACGAGUC	-4.93 ± 0.27	-2.26 ± 0.18
CCCUAGCAAUAUUACGACCU	-3.5 ± 0.21	-2.68 ± 0.26
GUAGAGCAAUAUUACGGCAA	-2.01 ± 0.13	-0.535 ± 0.21
UGCGAGCAAUAUUACGAUCA	0.0986 ± 0.13	0.104 ± 0.14
GACUAGCAAUAUUACGAAUU	-1.35 ± 0.092	-0.277 ± 0.11
UGUGAGCAAUAUUACGCUAA	-2.39 ± 0.17	-2.04 ± 0.23
UUAUAGCAAUAUUACGACAG	-1.09 ± 0.16	-0.548 ± 0.21
CGUCAGCAAUAUUACGAACC	-1.37 ± 0.41	0.157 ± 0.37

Source: the supplement of paper PMC7877785
